The target in assay [1] is T1, recombinant biotinylated CD47 (recCD47, SinoBiological 12283-H27H-B) (UniProt Q08722 19-139, biotinylated (AVI-tag)).
T1 construct: Bought protein; also called recombinant CD47
The assay is described as follows: SPR Biacore S200, biotinylated recCD47 on SA chip, fusion protein as analyte, single-cycle, 1:1 model, 25 C. The method, then: The binding affinity of CO201-scFv-Fc-mono as described in Example 4 to CD47 was determined via surface plasmon resonance (SPR) on a Biacore S200 system. Recombinant biotinylated CD47 was immobilized on an SA streptavidin chip to a level of 100 RU (in 10 mM NaAc pH 5.0). CO201-scFv-Fc-mono reacted with recombinant CD47 at gradient concentrations
(§1) A 1:1 binding model was used to fit the data. All curves are well fitted to the 1:1 model.

The target in assay [2] is T2, human CD47, cell-surface (on Jurkat cells, human red blood cells) (human, UniProt Q08722 19-323).
T2 construct: also called Integrin Associated protein (IAP); MER6
T2 sequence (Q08722 19-323 limits assumed): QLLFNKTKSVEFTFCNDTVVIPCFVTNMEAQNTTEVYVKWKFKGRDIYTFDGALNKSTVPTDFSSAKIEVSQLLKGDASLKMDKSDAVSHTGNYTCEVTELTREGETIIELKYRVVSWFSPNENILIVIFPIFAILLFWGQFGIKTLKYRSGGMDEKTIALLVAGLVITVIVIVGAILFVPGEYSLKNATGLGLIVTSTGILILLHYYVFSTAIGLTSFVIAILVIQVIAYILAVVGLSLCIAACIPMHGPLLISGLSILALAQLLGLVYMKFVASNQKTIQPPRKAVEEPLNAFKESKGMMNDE
The assay is described as follows: flow cytometry on Jurkat cells, FITC MFI against log µg/ml.

For assay [3], the target named is T2, human CD47, cell-surface (on Jurkat …). The assay is described as follows: flow cytometry on stimulated normal human B cells, FITC MFI against log µg/ml. On the procedure:
FIG. 6: Hemagglutination and binding of red blood cells (RBCs) by huCO-scFv. (A) 2% RBCs (v/v in PBS) were incubated with increasing concentrations of the indicated antibodies or fragments for 30 minutes. A small punctate circle indicates no hemagglutination, while a diffuse hazy pattern indicates hemagglutination. (B) 2% RBCs (v/v in PBS) were incubated with increasing concentrations of FITC-conjugated CO201-scFv and analyzed by flow cytometry. (C and D) B cells were isolated from buffycoats of healthy human donors using CD19 Dynabeads and stimulated with 1 μg/ml CpG and RP105 for 24 hours. (C) B cells were incubated with the indicated antibodies or fragments at increasing concentrations and analyzed for binding by flow cytometry. (D) B cells were incubated with the indicated antibodies or fragments at concentrations in μg/ml for 3 hours, followed by staining with Annexin V and 7-AAD. % PCD=Annexin V-positive cells.

Assay [4] shares this target. In words: cell-based or functional assay.
For assay [5] the target is unchanged. The assay is described as follows: flow cytometry, FITC-conjugated scFv on Jurkat cells, FITC MFI against log µg/ml. On the procedure:
FIG. 5: Binding of huCO-scFv to Jurkat cells. Jurkat cells incubated with increasing concentrations of FITC-conjugated huCO-scFv. FITC-intensity was analyzed by flow cytometry.
DPBS-washed cancer cell lines or RBCs were pelleted and washed with washing buffer (3% (w/v) BSA, 1% (w/v) sodium azide in DPBS) and incubated with Human BD Fc Block for 10 minutes before being plated into a round-bottom 96 well plate (2.5×10⁵ cells per well). The cells were then incubated with various concentrations of FITC-conjugated huCO-scFv, or human IgG4 isotype control as indicated for 1h on ice with slight agitation. All samples were prepared in duplicates. The cells were analyzed by flow cytometry after three washes in washing buffer. Excitation wavelength FITC: 488 nm, detection: 530/30 nm.

The target of assay [6] is T1, recombinant biotinylated CD47 (recCD47, …). The assay is described as follows: SPR Biacore S200, biotinylated recCD47 on SA chip, scFv as analyte, single-cycle, 1:1 model, 25 C. On the procedure: The binding affinity of the huCO-mAbs to CD47 was determined via surface plasmon resonance (SPR) on a Biacore S200 system. Recombinant biotinylated CD47 was immobilized on an SA streptavidin chip to a level of 100 RU (in 10 mM NaAc pH5.0). […]
A 1:1 binding model was used to fit the data. All curves are well fitted to the 1:1 model. […] The affinity constant KD is calculated as kd/kₐ.

Assay [7] addresses T2, human CD47, cell-surface (on Jurkat …). In words: flow cytometry on Jurkat cells, detection with anti-His6-FITC, four parameter curve fit. The method, then: PBS-washed cancer cell lines or RBCs were pelleted and washed with washing buffer (3% (w/v) BSA, 1% (w/v) sodium azide in PBS) and incubated with Human BD Fc Block for 10 minutes before being plated into a round-bottom 96 well plate (2.5×10⁵ cells per well). The cells were then incubated with various concentrations of CO-1 scFv, or appropriate isotype controls as indicated for 1 h on ice with slight agitation. All samples were prepared in duplicates. Cells were washed twice, resuspended in cold His staining solution (1 μg/ml His₆-FITC in washing buffer), and incubated for 30 minutes on ice with slight agitation. Cells were analyzed by flow cytometry after two washes. Excitation wavelength FITC: 488 nm, detection: 530/30 nm.
The cells were incubated with increasing concentrations of CO-1 scFv, or isotype control, followed by incubation with an anti-His, FITC secondary antibody. […] The EC₅₀ for CO-1 scFv was analyzed by four parameter […] curve fitting in GraphPad and determined to be 0.05 ng/ml.

In assay [8] the target is T1, recombinant biotinylated CD47 (recCD47, …). In words: SPR Biacore S200, biotinylated recCD47 on SA chip, scFv as analyte, single-cycle, 1:1 model, 25 C. The method, then:
The affinity of CO-1 scFv to CD47 was determined via surface plasmon resonance (SPR) on a Biacore S200 system. Recombinant biotinylated CD47 was immobilized on an SA streptavidin chip to a level of 100 RU (in 10 mM NaAc pH 5.0). CO-1 scFv reacted with recombinant CD47 at gradient concentrations
as §1
The source holds these as a separate data set.

Where “and” joins values, the source holds several entries; their conditions need not be identical. Identical values can stand only once.

T1 sequence (Q08722 19-139 limits assumed): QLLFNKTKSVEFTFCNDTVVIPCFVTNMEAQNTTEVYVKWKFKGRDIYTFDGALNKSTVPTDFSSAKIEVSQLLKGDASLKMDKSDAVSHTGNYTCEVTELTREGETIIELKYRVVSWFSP

B1: CO201-scFv-Fc-mono (Fc fusion)
chain 1: QVQLVQSGSELKKPGASVKVSCKASGYTFTNFGMHWVRQAPGQGLEWMGWINTYTGEPTYTDDFKGRFVFSLDTSVSTAYLQISSLKAEDTAVYYCARGDYRYGDSWGQGTTVTVSSGGGGSGGGGSGGGGSDIVMTQTPLSLSVTPGQPASISCRSSQSLVHSNGKTYLHWYLQKPGQPPQLLIYRVSNRFSGVPDRFSGSGSGTDFTLKISRVEAEDVGVYYCSQSTHVPFTFGQGTKLEIKSKYGPPCPSCPAPEFLGGPSVFLFPPKPKDTLMISRTPEVTCVVVDVSQEDPEVQFNWYVDGVEVHNAKTKPREEQFNSTYRVVSVLTVLHQDWLNGKEYKCKVSNKGLPSSIEKTISKAKGQPREPQVYTLPPSQEEMTKNQVSLWCLVKGFYPSDIAVEWESNGQPENNYKTTPPVLDSDGSFFLYSRLTVDKSRWQEGNVFSCSVMHEALHNHYTQKSLSLSLGK
chain 2: SKYGPPCPSCPAPEFLGGPSVFLFPPKPKDTLMISRTPEVTCVVVDVSQEDPEVQFNWYVDGVEVHNAKTKPREEQFNSTYRVVSVLTVLHQDWLNGKEYKCKVSNKGLPSSIEKTISKAKGQPREPQVYTLPPSQEEMTKNQVSLSCAVKGFYPSDIAVEWESNGQPENNYKTTPPVLDSDGSFFLVSRLTVDKSRWQEGNVFSCSVMHEALHNHYTQKSLSLSLGK
notes: Knob-hole heterodimer with a single scFv, 77.3 kDa; FITC-conjugated in the flow cytometry assay on RBCs; also called huCO201-scFv-Fc-mono; huCO-scFv-Fc-mono
Regarding B1, in assay [1], the Kd came out at 0.097 nM, the koff turned out to be 0.0027 s⁻¹ and the on-rate constant (kon) was found to be 2.8e+07 M⁻¹ s⁻¹.

B2: CO-1.4 (antibody, V domains shown)
VH: QIQLVQSGPELKKPGETVKISCKASGYTFTNFGMHWVKQAPGKGLKWMGWINTYTGEPTYTDDFKGRFAFSLETSASTAYLQINSLKNEDTATFFCTRGDYRYGDSWGQGTTLTVSS
VL: DVVMTQTPLSLPVSLGDQASISCRSSQSLVHSNGKTYLHWYLQKPGQSPKLLIYRVSNRFSGVPDRFSGSGSGTDFTLKISRIEAEDLGVYFCSQSTHVPFTFGSGTKLEIK
notes: Divalent comparator antibody against CD47; also called full length IgG4 format of the CO-1 antibody; chimeric IgG4 comparator antibody
In the case of B2, the concentration giving a half-maximal response (EC50 (read off the curve)) in assay [2] was approximately 0.3 µg/mL; in assay [3], approximately 0.2 µg/mL.

B3: CO201-scFv (scFv)
scFv: QVQLVQSGSELKKPGASVKVSCKASGYTFTNFGMHWVRQAPGQGLEWMGWINTYTGEPTYTDDFKGRFVFSLDTSVSTAYLQISSLKAEDTAVYYCARGDYRYGDSWGQGTTVTVSSGGGGSGGGGSGGGGSDIVMTQTPLSLSVTPGQPASISCRSSQSLVHSNGKTYLHWYLQKPGQPPQLLIYRVSNRFSGVPDRFSGSGSGTDFTLKISRVEAEDVGVYYCSQSTHVPFTFGQGTKLEIK
notes: FITC-conjugated in the flow cytometry assays, unconjugated in SPR; also called huCO-scFv (collective); humanized scFv version of CO201
In the case of B3, the “programmed cell death (PCD) of Jurkat cells, Annexin V-positive cells after 3 hours” value (from here on “programmed cell death (PCD)”) in assay [4] is approximately 60%. For the same molecule, in assay [5], the 50% effective concentration (EC50 (read off the curve)) was approximately 2 µg/mL. Moreover, in assay [6], the dissociation constant Kd was found to be 0.061 nM, the koff was determined as 0.00026 s⁻¹ and the kon came to 4.3e+06 M⁻¹ s⁻¹.

B4: CO213-scFv (scFv)
scFv: QVQLVQSGSELKKPGASVKVSCKASGYTFTNFGMHWVRQAPGQGLKWMGWINTYTGEPTYTDDFKGRFVFSLDTSVSTAYLQISSLKAEDTAVYYCARGDYRYGDSWGQGTTVTVSSGGGGSGGGGSGGGGSDIVMTQTPLSLSVTPGQPASISCRSSQSLVHSNGKTYLHWYLQKPGQPPQLLIYRVSNRFSGVPDRFSGSGSGTDFTLKISRVEAEDVGVYYCSQSTHVPFTFGQGTKLEIK
modifications: FITC-conjugated in the flow cytometry assays, sites not stated; unconjugated in SPR.
notes: FITC-conjugated in the flow cytometry assays, unconjugated in SPR; also called huCO-scFv (collective)
Turning to B4, the “programmed cell death (PCD)” value in assay [4] is approximately 60%. Also, the “EC50 (read off the curve)” value in assay [5] was approximately 1 µg/mL. Besides, in assay [6], the Kd amounted to 0.048 nM, the off-rate constant (koff) amounted to 0.00021 s⁻¹ and the kon was 4.4e+06 M⁻¹ s⁻¹.

B5: CO209-scFv (scFv)
scFv: QVQLVQSGSELKKPGASVKVSCKASGYTFTNFGMHWVRQAPGQGLEWMGWINTYTGEPTYTDDFKGRFVFSLDTSVSTAYLQISSLKAEDTAVYYCARGDYRYGDSWGQGTTVTVSSGGGGSGGGGSGGGGSDIVMTQTPLSLSVTPGQPASISCRSSQSLVHSNGKTYLHWYLQKPGQSPKLLIYRVSNRFSGVPDRFSGSGSGTDFTLKISRVEAEDVGVYYCSQSTHVPFTFGQGTKLEIK
modifications: FITC-conjugated in the flow cytometry assays, sites not stated; unconjugated in SPR.
notes: as for B4
For the molecule B5, the “programmed cell death (PCD)” value in assay [4] is approximately 60%. Moreover, in assay [5], the half-maximal effective concentration (EC50 (read off the curve)) was approximately 2 µg/mL. In assay [3], the “EC50 (read off the curve)” value is approximately 4 µg/mL. Further, in assay [6], the equilibrium dissociation constant (Kd) came out at 0.033 nM, the off-rate (koff) worked out at 0.00017 s⁻¹ and the kon was determined as 5.1e+06 M⁻¹ s⁻¹.

B6: CO-1 scFv (scFv)
scFv: QIQLVQSGPELKKPGETVKISCKASGYTFTNFGMHWVKQAPGKGLKWMGWINTYTGEPTYTDDFKGRFAFSLETSASTAYLQINSLKNEDTATFFCTRGDYRYGDSWGQGTTLTVSSGGGGSGGGGSGGGGSDVVMTQTPLSLPVSLGDQASISCRSSQSLVHSNGKTYLHWYLQKPGQSPKLLIYRVSNRFSGVPDRFSGSGSGTDFTLKISRIEAEDLGVYFCSQSTHVPFTFGSGTKLEIK
notes: Murine VH and VL of mCO-1 in single chain format; Detected on cells with anti-His6-FITC, so it carries a His tag; also called CO-1 scFv fragment; scFv fragment of mCO-1
With B6, a half-maximal effect in assay [7] (EC50) was put at 0.05 ng/mL. In addition, in assay [8], the dissociation constant (Kd) is 0.179 nM and 0.18 nM; the koff was 0.0056 s⁻¹; the association rate constant (kon) worked out at 3.1e+07 M⁻¹ s⁻¹.

The values are drawn from patent publication US20260109764A1 (CAEDO ONCOLOGY, published 2026).
